The source of these data is PMC5499861 (Nucleic Acids Research, 2017).

Square brackets hold non-standard residues; d marks the D form. Ends that are not written are not given here. Arg(Me2a) = CN(C)C(=N)NCCC[C@H](N)C(=O)O; Lys(Me3) = C[N+](C)(C)CCCC[C@H](N)C(=O)O

For assay [1], the target named is nucleosome core particle (Xenopus laevis recombinant histone octamer on 147 bp 601 DNA) (Xenopus laevis). The assay can be described thus: native gel or EMSA. A general note: In EMSA bound probe runs differently from free probe, usually more slowly.
The target of assay [2] is RcATXR5 (ATXR5 SET domain) (Ricinus communis, UniProt B9RU15). Format: binding.
Assay [3] concerns the target T1, SET domain of Ricinus communis ATXR5 (a.a. 158-374) (Ricinus communis, UniProt B9RU15 158-374).
T1 sequence: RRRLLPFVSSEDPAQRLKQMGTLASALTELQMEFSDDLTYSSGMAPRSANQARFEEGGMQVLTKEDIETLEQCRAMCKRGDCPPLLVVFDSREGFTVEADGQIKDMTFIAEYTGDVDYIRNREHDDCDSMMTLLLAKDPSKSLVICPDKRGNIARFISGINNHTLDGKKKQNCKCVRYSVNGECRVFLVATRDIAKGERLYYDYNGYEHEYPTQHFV
Briefly: crystal structure.

The Kd is the free concentration of one partner at which half of the binding sites on the other are occupied at equilibrium, for simple one-to-one binding. In the case of “full-length Glycine max ATXR5 (a.a. 1-334) (enzyme)”, the equilibrium dissociation constant (Kd) in assay [1] came out at 380 nM.

With `Nc1ncnc2c1ncn2[C@@H]1O[C@H](C[C@@H](N)CC[C@H](N)C(=O)O)[C@@H](O)[C@H]1O` [SFG, sinefungin], the “GST pull-down, compound-dependent association with GST-PHD” value in assay [2] is reported as “PHD domain of ATXR5 senses the binding of sinefungin to the SET domain”.

B1: histone H3.1 peptide (a.a. 18-36) R26me2a (peptide)
peptide: KQLATKAA[Arg(Me2a)]KSAPATGGVKY
modifications: not fully specified
Turning to B1, the binding result in assay [3] is recorded as “binds”.

B2: histone H3.1 peptide (a.a. 18-36) K36me3 (peptide)
peptide: KQLATKAARKSAPATGGV[Lys(Me3)]Y
For the molecule B2, the binding result in assay [3] was “binds”.

B3: histone H3.1 peptide (a.a. 18-36) R26me1 (peptide)
peptide: KQLATKAA[Rme1]KSAPATGGVKY
On to B3, for which the binding result in assay [3] was “binds”.
